Laboratory results reported in publication PMC10755736 (2023).
Non-standard residues stand in square brackets, D forms with d. No end group written: not given here. pY = N[C@@H](Cc1ccc(OP(=O)(O)O)cc1)C(=O)O

Target: Nck adaptor protein (Nck1), recombinant (UniProt P16333 1-377)
Assay: MST

EEHI[pY]DEVAAD [peptide Y474 (pY-containing Tir peptide)]
Kd: 76.4 nM
